Among the data in the RNAGym collection of RNA variant scans (doi:10.7554/elife.80360) are self-cleavage values, retold here.

First the molecules themselves.
B1: Hairpin Ribozyme (parent)
chain: GUCCUCUUUCACGUGCGCGUGAAAGAGAGAAGUGAACCAGAGAAACACACGUUGUGGUAUAUUACCUGGUA

Variants of B1 are the subject of the data set. The data set is described as follows: self-cleavage, relative activity (ratio to wild type); higher = more cleavage; co-transcriptional.
Regarding GUCCUCUUUCACGUGCGCGUGAAAGAGAGAAAUGAACCAGAGAAACACACGUAGUGGUAUAUUACCUGGUA [G32A U53A], the self-cleavage came to 0.0993. Then GUCCUCUUCCACGUGCGCGUGAAAGAGAGAAGUGAACCAGAGAAACACACGUGGUGGUAUAUUACCUGGUA [U9C U53G], with 1.13; and GUCCUCUUUCACGUGUGCGUGAAAGAGAGAAGUGAACCAGAGAAACACACGUUGUGGUAUAUUAUCUGGUA [C16U C65U], with 0.443; and GUCCUCUUUCACGUGCGCGUGAAAGAGAGAAGGGAACCAGAGAAACACACGUUGUGGUAUAUUACCAGGUA [U33G U67A], with 0.146. Consider GUCCUCUUUCACGUGCGCGUGAAAGAGAGAAGUGAACCAGAUGAACACACGUUGUGGUAUAUUACCUGGUA [G42U A43G], for which the self-cleavage was determined as 0.102.

For GUCCUCUUUCACGUGCGCGUCAAAGAGAGAAGUGAACCAGAGAAACACACGUUGUGGUAUAUUUCCUGGUA [G21C A64U], the self-cleavage amounted to 0.0998. Then GUCCUCUUUCACGUGCGCGUGAAAGAGAGAAGUGAACCCGAGAUACACACGUUGUGGUAUAUUACCUGGUA [A39C A44U], with 0.129; and GUCCUCUUUCACGUGCGCGUGAAAGAGGGAAGUGAACCAGAGAAACACACGUUGUGGUAUAUCACCUGGUA [A28G U63C], with 0.138; and GUCCUCUUUCACGUGCGCGUGAAAGAGAGAAGUGAACCAGAGAAACAAGCGUUGUGGUAUAUUACCUGGUA [C48A A49G], with 0.215. For GUCCUCUUUCACGUGCGCGUGAAAGAGAGACGUGAACCCGAGAAACACACGUUGUGGUAUAUUACCUGGUA [A31C A39C] the value was 0.173. Then GUCCGCUUUCACGUGCGCGUGAAAGAGUGAAGUGAACCAGAGAAACACACGUUGUGGUAUAUUACCUGGUA [U5G A28U], with 0.242; and GUCCUCUUUCACGUGCGCGUGAAAGAGAGAAGUGAACCAGAGGAACACACGUUGUGGUAUAUUUCCUGGUA [A43G A64U], with 0.302.

Turning to GUCCUCUUUCACGUGCGCGUGCAAGAGAGAAGUGAACCAGAGAAACACACGUUGUGGUAUAUUACUUGGUA [A22C C66U], the self-cleavage is 0.649. For GUCCUCUUUCACGUGCGCGUGAAAGAGAGAAGUGAACCAGUGAAACACACGUUGUGGUAUAUUUCCUGGUA [A41U A64U] the value was 0.258; for GUGCUCUUUCACGUGCGCGUGAAAGAGAGAAGUGAACCAGAGAAACACACGUUGUGGGAUAUUACCUGGUA [C3G U58G], 0.0994; for GUCCUCUUUCACGUGGGCGUGAAAGAGAGAAGUGAACCAGAGAAACACACGUUGUGGUAUAUUACGUGGUA [C16G C66G], 0.0535. For GUCCUCUUUCACGUGCGAGUGAAAGAGAGAAGUGAACCAGAGAGACACACGUUGUGGUAUAUUACCUGGUA [C18A A44G] the value was 0.199; for GUCCUCUUUCACGUGCGCGUGAAAGAGAGAGGCGAACCAGAGAAACACACGUUGUGGUAUAUUACCUGGUA [A31G U33C], 0.0729; for GUCCUCUUUCACGUGCGCGUGAAAGAGAGAAGUGAACCAGGGAAACAGACGUUGUGGUAUAUUACCUGGUA [A41G C48G], 0.121. In the case of GUCCUCUUUCACGUGCGCGUGAAAGAGAGAAAUGAACCAGAGCAACACACGUUGUGGUAUAUUACCUGGUA [G32A A43C], the self-cleavage amounted to 0.0569. As to GUCCUAUUUCACGUGCGCGUGAAAGAGAGAAGUGAACCAGAGAAGCACACGUUGUGGUAUAUUACCUGGUA [C6A A45G], the self-cleavage was 0.0698. For GUGCUCUUUCACGUGCGCGUGAAAGAGAGAAGUGAACCAGAGAAACACACGUUGUGGUAUGUUACCUGGUA [C3G A61G] the value was 0.0947. As to GUCCUCUUUCACGUGCGCGUGAAAGAGAGAAGUGAACCGGAGAAACACACGCUGUGGUAUAUUACCUGGUA [A39G U52C], the self-cleavage is 0.26.

As for GUCAUGUUUCACGUGCGCGUGAAAGAGAGAAGUGAACCAGAGAAACACACGUUGUGGUAUAUUACCUGGUA [C4A C6G], the self-cleavage amounted to 0.161.

Regarding GUCCUCUUUCACGUGCGCGUGAAAGAGAGAAGCGAACCAGAGAAACACACGUUGUGGUAUAUUACCUGGUA [U33C], the self-cleavage is 0.161. For GUCCUCUUUCACGUGCUCGUGAUAGAGAGAAGUGAACCAGAGAAACACACGUUGUGGUAUAUUACCUGGUA [G17U A23U], the self-cleavage was 0.811. For GUCCUAUUUCACGUGCGCGUGAAAGAGAGAAGUGAACCAGAGAAACACACGUUGUGGUCUAUUACCUGGUA [C6A A59C] the value was 0.113; for GUCUUCUUUCACGUGCGCGUGAAAGAGAGAAGUGAACCAGAGAAACACACGUUGUGGUAUAUUACCUGGUA [C4U], 0.371.

In the case of GUCCUCUUCCACGUGCGCGUGUAAGAGAGAAGUGAACCAGAGAAACACACGUUGUGGUAUAUUACCUGGUA [U9C A22U], the self-cleavage was determined as 0.799. Then GUCCUCUUGCACGUGCGCGUUAAAGAGAGAAGUGAACCAGAGAAACACACGUUGUGGUAUAUUACCUGGUA [U9G G21U], with 0.674. For GUCCUCUUCCACGUGCGCGUGAAAGAGAGAAGUGAACCAGAGACACACACGUUGUGGUAUAUUACCUGGUA [U9C A44C] the value was 0.183; for GUCCUCUUUCACGUGCGCGUGAAAGAGAGAAGUGAACCAGAGAAACCCACCUUGUGGUAUAUUACCUGGUA [A47C G51C], 0.377; for GUCCUCUUUCACGUGUGCGUGAAAGAGAGAAGCGAACCAGAGAAACACACGUUGUGGUAUAUUACCUGGUA [C16U U33C], 0.27.

For GUCCUGUUUCACGUGCGCGUGAAAGAGAGAAGUGAACCAGUGAAACACACGUUGUGGUAUAUUACCUGGUA [C6G A41U], the self-cleavage turned out to be 0.873.

Consider GUCCCCUUUCACGUGCGCGUGAAAGAGAGAAGGGAACCAGAGAAACACACGUUGUGGUAUAUUACCUGGUA [U5C U33G], for which the self-cleavage was determined as 0.208. For GUCCUCUUUCACGUGCGGGUGAAAGAGAGAAGUGAACCAGAGAAACACACGUUGUGGCAUAUUACCUGGUA [C18G U58C] the value was 0.802. For GUCCUCUCUCACGUGCGCGUGAAAGAGAGAAGUGAACCAGAGAAACACACGUUGUGGUAUAUUACCUGCUA [U8C G69C] the value was 0.164. As for GUCCUCUUUCACGUGCACGUGAAAGAGAGAAGUGAACCAGAGAAACACACGUUGUGGUAUAUUACCUGAUA [G17A G69A], the self-cleavage stood at 0.306.
